The source of these data is a protein production outcome set (Wang et al. 2014).

The data set can be described thus: label from the status in PepcDB records.
In the case of “MPTVKSRLVLYFPGFDPLDAAAHHLRYQRAAALAGKTWDVNYAVGPRESRPAGEAFTVEASAGNWSTRSDIVVYDHNDVISQLRDASVWRQIWLGFKAGAGIVSEGGAARYLRHAWRFGLFFIFPFLLMLAGGALAAGIALSPWLFSLPLWLLVVSIPAAALFFVKAFLPFAERFHTLHLYADWRFALAVGRNEPIARDWIEERAALVVTALEEPSDEVLVVSHSMGASLALAVIGRVLELKPDALDGRKLSFATLGGAALQCAFLSSAERLRESIGAIARHPDVTWFDIQCLTDPIHLYRCNTVALTGHKDAPQPKIVPIRFKHSLSPERYKKNKRNFLRMHRQYVLGPDRRSGYDFTLLTAGPLPAASFADLESQSPPAL”, the protein production result is recorded as “failed”.

For the sequence “MPVAATNSETAMQQVLDNLGSLPSATGAAELDLIFLRGIMESPIVRSLAKAHERLEETKLEAVRDNNLELVQEILRDLAQLAEQSSTAAELAHILQEPHFQSLLETHDSVASKTYETPPPSPGLDPTFSNQPVPPDAVRMVGIRKTAGEHLGVTFRVEGGELVIARILHGGMVAQQGLLHVGDIIKEVNGQPVGSDPRALQELLRNASGSVILKILPSYQEPHLPRQVFVKCHFDYDPARDSLIPCKEAGLRFNAGDLLQIVNQDDANWWQACHVEGGSAGLIPSQLLEEKRKAFVKRDLELTPNSGTLCGSLSGKKKKRMMYLTTKNAEFDRHELLIYEEVARMPPFRRKTLVLIGAQGVGRRSLKNKLIMWDPDRYGTTVPYTSRRPKDSEREGQGYSFVSRGEMEADVRAGRYLEHGEYEGNLYGTRIDSIRGVVAAGKVCVLDVNPQAVKVLRTAEFVPYVVFIEAPDFETLRAMNRAALESGISTKQLTEADLRRTVEESSRIQRGYGHYFDLCLVNSNLERTFRELQTAMEKLRTEPQWVPVSWVY”, the protein production result is recorded as “not failed”.

As to “MPVILCPAAEESSGLMMKSAETASLTVSHNELQAMAYTDPLTGLGNRNRMRDKVLQISAERASDPAPFTIGIANLDSFKPINDLFGSSAGDEILCQVAHRLRACIPDGALVTRHDGDEFAFVLPLIFERASAEKFGQMIREVLSAPYDLGDRNVRLSASFGFAIYPFAGEDCEELLKSAETALYRSKRRGRGQITVYSREIAQEMKRATQLEQALRNAIISDAIDVHFQPIVSLANNQVVGFEALARWNDPDLGFVSPGVFVPLAEERGFIDALSEALLRKAAEAALSWPRELFLSFNLSSAQLMDPGTSGSILSILGRVGFDPHRLELEITETAVMGSADTAHRIIADLRAAGVRISLDDFGTGQSSLGRLRDFIFDKIKIDRAFVSRINSDRASEHIIKAILSLCEGLELEVVAEGIEDYAEAVKLRTLGCGMGQGYHFGRPADGIATLRFLHENYYDMAPAERVSA”, the protein production result was “failed”.

Take “MPVKLAQALANPLFPALDSALRSGRHIGLDELDNHAFLMDFQEYLEEFYARYNVELIRAPEGFFYLRPRSTTLIPRSVLSELDMMVGKILCYLYLSPERLANEGIFTQQELYDELLTLADEAKLLKLVNNRSTGSDVDRQKLQEKVRSSLNRLRRLGMVWFMGHDSSKFRITESVFRFGADVRAGDDPREAQRRLIRDGEAMPIENHLQLNDETEENQPDSGEEE”: the protein production result is “failed”.

Regarding “MPVLATSLVSLKVEEPYLPPRNWESLPSQSGRFLPPTRSSASSSSSSSFVSESSLVRLALNALQGVESSLISIEQLSSAFCSEPADRTFHKIPSLWHRLSSTDALGQILRDIGCFGSLVFLLHKFVDHFTRLNLDVESAVEGQGSCKIGENEEVNNKSCYTLVNQAFAIAVRRVLEGYISGLDTLCASIELRRSSNIVDGSDHGSSRLGSLTNVVHPKITLLEVFLHTRELRTQIEALANICDLYDIALSYCASPWECLITEATTRFHGFYRGSDLLTYLYSQLQVADPTHSAMLKFLFLKTCEPYCEFIRSWMFKAELNDPHKEFIVECRSESTSFSWNKPGISPLKSVRERGGLVPCFLNGFLEPIVRAGQQLQVITKLLELCNLPASGHKNYTDLLPCWTYFSTTSPGYPSPITFSKLHIEVMIKKRDDYYRMMQEKLGDFSEKFEVFPGQVPGAISLPISYGDGDKNSIYFTLDESLLIPSTMAIDLTRDQSGSDSDDQNTEDRWFSEIDASCSSECSSTRDSLEASEVGLLDSQSTLVGPPPNYLSALRFSVASNGNCNQNLVQHSDSGYIDNNLVRQGEKADINHQWVDTKPEESTGVCEDDKFRGPLLIKSWPLGGLPRNPFCVDKKSADDDSEDPRNYSGARMEQRHLMNTDERKLFLNNISTSGSCSKHERRHDVLENCLSSKLDLMKDTKVNYPNDVLSMNPLVRCDFLRKHGNTNKRNQGKSLPWFDFSAVDDPSKTCITRIPVRVPIDFQKESHSPQTDRKSHRHANQERFDVEDPKVSSSQLSSGIKGCAEEKKSNAFGGGRWESMLRRSNNPETSAFSDRRQDSSGTFELPLDFVIDKCLLQEIHLQYPSRYFHLLEIYIFSKLAIKLLEEGFGLQEHLLALRRYHFMELADWADVFVVSLWHHKWLVTEADKRIAEIQGFLESSIQRSSCERDICKDRIFLYKRQGTMHIPPSTIGVRSFDFLRLGYRVDWPISIILTCDALTAYADVFSFLVQVKLAAYVLTDVWCSLKVKDMMDLESVHMAYLSEALRIGIQSTDRVPNDSWTKTLGINTSQNFDKELKELHKCHLRSPKHGKYGLSRFWDYLNFNLYYSDILHDSNIFSLIP”, the protein production result is recorded as “failed”.

In the case of “MPVSQQCIKACGFMHPRRLQWLTFSTSPAHPVRLFLAHLYSFASRFVMTTPNPDPLHGVTLEQILRALIEHYEWSGLAERIDIRCFKSDPSIKSSLTFLRKTPWAREKVEALYVKLHRGKGW”, the protein production result is on record as “failed”.

As to “MPVYLYYGEDTYSLNQKIDHLVNQNVHAEWKDFNYIKLSGNEKNIAAKVFTEVMTLPFGEGNKIVHTDSDHLIGSLSNEDNNQELENQLSRIPASNILLITSNKKPDSRRTVVKTILKYAQQEEFPLVPCWDKKGIVNLIGKYAAIHQVKFTPDVTDYLVEAIGNNTARVDSEFAKLAVYASEKIISLEEIKQLVSNHNTDYQKLTIAMLRNHSNLAIAQVDKLLDSNEHPLKIVATLTSFFRTWLITKAGVEARLSDIKIAEIAEVKNPKRLYYLKDEIKFVGVQKLKNSLTLLLQLETELKSGTNNLISRIIEICMI”, the protein production result was “failed”.

As for “MPWKNTESRYSTMTIALHWLMLVLLAVVYACIEFRGIFPKGSGGRTLIVEAHFMLGLTVFALVWLRLFARAQGVAPKILPTPPHWQRLLSTLMHWALYLFMIAMPILGWLTTSAKGHQVMFYGLDLPLLLAENKPLAKQLQGWHELLGTVGYWLIGLHALAGLYHHYVMRDNTLQRMWRKRGQA”, the protein production entry is “failed”.

Regarding “MPWLLPREIAPLHQKALDRYLGSLTERLSDPNVDRNALVREELARLLYGRPYEELLEANPLAAMGLDPEGITFEAEYYAATDLEKFRRVKPLLWFWKVLDLTPLGQSVHSGVAIRRALAPFIFKRVGKNPKFFQNVEFSVGYNLELGDDVVVHRYVFLDDIGGIKIGDRTSLSDYVNVYSHTHHVLASPDVTLKETIIGSGVRITYHATVLAGVRIGDDAMVGTGAVVTKDIPPHAIALGIPARPVRYKVRHDCPYCRKGEPHPSDLVPKLPDRKGNPDYPDFLPPGFGTREAGS”, the protein production entry is “failed”.

As for “MPYAIDFGTTNTVIARWNEATRQGNLIDLPSLSHPLGDSGPLVPSLLYVENAALGQVAIAREVLDRGRDISTDTRFFKNFKRGIGVAVQGFLPQLDGHTLSLETLGQWYLDKLIRILTEQEGQGPDCLALTVPVDSFESYRHWLSHTCRSWGVEEVRLVDEPTAAALGYGVGDASQILVLDFGGGTVDFSWVQLGDRGQKGRSGFLLKWGGILGGSKAEEKSALAKVLAKAGANLGGSDIDYWISEYFTEAQGLQVSPWIRRLAERLKIALGEAEEATEVYFDDQALESYEFQLRRSDLTEILQQRQFFERLTALWEQVQQTAQRRGLTPANLDAVLVVGGTSQLPMVQDWINAQFPAGKIRNQQPFGAIALGALQIYQGREVQDYLYHSYGVRYWNRRKNSHNWHPIIKNGQTYPMAEPIELTLGASLDNQPSIELIVGELGSSIGATEVYFDGNQLITRVLENQAFTVQPLNDRNGARQIAQLSPPGVPGGDRIKVKFWVDDQRYLRLTVEDLLQQKLLLENQVVAQLRLEHHHHHH”, the protein production result is reported as “failed”.

Regarding “MPYINELRNHKFLIILVDLLCILAAYIAAFYIRYQGFPAKNWESFVSLLPWILLIGLFFISVYELYALDRKNTLWDILVKIFVAVTFMAFLTMAASYFFREFALPRSILFIASVFTIVLLATWKYVFLKLTRRNVVGKVLFIGDDDNTERMISKIKHPMLKGTSIKQVHPNIPMDKINHYMRHADYIILCTSIQKEKKSMIIYHAMECNKLVYVVPTLYELLLQRSSVTPLDDTMLMSVKPFGLTWDQAFIKRAFDVVTSAFTLICTSPLLPISCNFN”, the protein production result is “failed”.
